In assay [1] the target is 17b antibody. The assay is described as follows: SPR (Biacore); 17b on-rate with CD4 over without CD4. On the technique in general: SPR reads the build-up and loss of mass on a sensor chip optically.
For assay [2], the target named is 2-domain CD4 (UniProt P01730). The assay is described as follows: SPR (Biacore), 2-domain CD4 immobilised, gp120 analyte.
The target in assay [3] is CD4 as used in isothermal titration calorimetry (UniProt P01730). The assay is described as follows: ITC, drawn table of thermodynamic values of CD4-gp120 binding.
Assay [4] has the same target. The assay is described as follows: ITC, drawn table of thermodynamic values, column 'Kd (nM) to sCD4'. For orientation: Isothermal titration calorimetry measures the heat released or taken up as one component is titrated into another.
Assay [5] deals with 2-domain CD4 (UniProt P01730). The assay is described as follows: ITC, titration of HXBc2 core with sCD4(D1D2) at 37°C, value in the box beside the curve.
The target of assay [6] is 2-domain CD4 (UniProt P01730). The assay is described as follows: ITC, titration of HXBc2 core with sCD4(D1D2) at 37°C, stoichiometry marked at molar ratio 1.0 (CD4/core gp120).

As for “gp120 HXBc2 core, wild type (from UniProt P04578 83-492)”, in assay [1], the CD4 Induction amounted to 79.9. Also, the Kd – broadly, the constant that tells how readily two partners part at equilibrium – in assay [2] amounted to 0.0295 µM; in assay [4], 0.087 µM; in assay [5], 0.117 µM. In addition, the -TΔS in assay [3] and in assay [5] was 167 kJ/mol each time. The values for the ΔH in assay [3] and in assay [5] were -208 kJ/mol and -205 kJ/mol, respectively. Further, the n in assay [6] came out at 1.
